# Experimental data published in patent US6730779B2, “Antibody that specifically binds an Mch4 polypeptide” (IDUN Pharmaceuticals, Inc., priority 1996, dated 2004).
# T1: Mch4 (Homo sapiens, UniProt Q92851)
# T1 sequence (Q92851 194-372 isoform Q92851-2): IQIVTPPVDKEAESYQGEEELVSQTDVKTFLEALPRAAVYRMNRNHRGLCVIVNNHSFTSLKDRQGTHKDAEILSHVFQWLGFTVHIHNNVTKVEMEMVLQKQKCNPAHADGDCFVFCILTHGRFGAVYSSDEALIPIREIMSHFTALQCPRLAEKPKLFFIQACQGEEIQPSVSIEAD
# T1 sequence (Q92851 373-479 isoform Q92851-2): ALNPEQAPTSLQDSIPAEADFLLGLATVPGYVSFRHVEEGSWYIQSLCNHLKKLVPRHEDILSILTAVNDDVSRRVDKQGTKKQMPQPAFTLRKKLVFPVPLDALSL
# T2: CPP32 (Homo sapiens, UniProt P42574)
# T2 sequence (P42574 29-175 limits assumed): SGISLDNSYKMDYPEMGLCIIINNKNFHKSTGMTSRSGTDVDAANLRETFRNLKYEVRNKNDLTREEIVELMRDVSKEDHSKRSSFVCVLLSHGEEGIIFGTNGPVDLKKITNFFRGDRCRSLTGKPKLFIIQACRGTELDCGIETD
# T2 sequence (P42574 176-277 limits assumed): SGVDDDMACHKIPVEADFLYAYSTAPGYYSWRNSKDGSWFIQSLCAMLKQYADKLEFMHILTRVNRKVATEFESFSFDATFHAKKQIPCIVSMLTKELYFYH
# B1: proMch4: full length proMch4 (SEQ ID NO:2) expressed in Sf9 cells by recombinant baculovirus (protein)
# chain: MKSQGQHWYSSSDKNCKVSFREKLLIIDSNLGVQDVENLKFLCIGLVPNKKLEKSSSASDVFEHLLAEDLLSEEDPFFLAELLYIIRQKKLLQHLNCTKEEVERLLPTRQRVSLFRNLLYELSEGIDSENLKDMIFLLKDSLPKTEMTSLSFLAFLEKQGKIDEDNLTCLEDLCKTVVPKLLRNIEKYKREKAIQIVTPPVDKEAESYQGEEELVSQTDVKTFLEALPRAAVYRMNRNHRGLCVIVNNHSFTSLKDRQGTHKDAEILSHVFQWLGFTVHIHNNVTKVEMEMVLQKQKCNPAHADGDCFVFCILTHGRFGAVYSSDEALIPIREIMSHFTALQCPRLAEKPKLFFIQACQGEEIQPSVSIEADALNPEQAPTSLQDSIPAEADFLLGLATVPGYVSFRHVEEGSWYIQSLCNHLKKLVPRHEDILSILTAVNDDVSRRVDKQGTKKQMPQPAFTLRKKLVFPVPLDALSI
# Assays:
# [1] = molecular target: T1, Mch4; assay: Continuous fluorometric assay of recombinant Mch4 protease activity (kinetic parameters); details: for Km: tetrapeptide substrate, bacterially expressed GST-Mch4, ICE buffer pH 7.5, room temperature
# Experimental: The kinetic properties of bacterially expressed recombinant Mch4 were determined using the tetrapeptide substrates DEVD-AMC and YVAD-AMC in a continuous fluorometric assay (Table I). […] After induction with IPTG, bacterial extracts were prepared from E. coli expressing the recombinant fusion proteins. The extracts were adsorbed to glutathione-Sepharose resin, washed several times and then analyzed by SDS-PAGE.
# The purified Mch4 GST-fusion protein was then used for further enzymatic analyses. The activity of Mch4 was measured using bacterial lysates prepared with ICE buffer (25 mM HEPES, 1 mM EDTA, 5 mM DTT, 0.1% CHAPS, 10% sucrose, pH 7.5) at room temperature (24-25° C.).
# [2] = molecular target: T2, CPP32; assay: Kinetic comparison of CPP32 with tetrapeptide substrates; details: CPP32 versus Mch4
# [3] = tested on: MCF7 human breast carcinoma cell line; assay: Apoptosis of MCF7 cells after transfection with Mch5B expression vector; details: 36 hours after transfection, control plasmid pcDNA3 about 50%
# [4] = molecular target: T2, CPP32; details: cited from earlier work
# [5] = tested on: Sf9 cells; assay: Induction of apoptosis in Sf9 cells by recombinant baculovirus expression; assay type: cell-based; details: about 48 h postinfection
# From the text: Briefly, Sf9 cells were infected with recombinant baculoviruses encoding full length proMch4 or full length CPP32 as a standard (Fernandes-Alnemri et al., J. Biol. Chem. 269:30761-30764 (1994)). Cells were then examined microscopically for morphological signs of apoptosis such as blebbing of the cytoplasmic membrane, condensation of nuclear chromatin and release of small apoptotic bodies. In addition the genomic DNA was examined for internucleosomal DNA cleavage.
# For the construction of transfer vectors and recombinant baculoviruses, the full length proMch4 in pBluescript KS+ was excised with Bam HI and EcoRI and subcloned into a Bam HI/EcoRI cut pVL1393 vector (Invitrogen, San Diego, Calif.) to generate the pVL-proMch4 transfer vector. The pVL-CPP32 transfer vector was made as described previously (Fernandes-Alnemri et al., supra (1994)). […]
# For-the induction of apoptosis in Sf9 cells by proMch4 and CPP32 cells were infected with recombinant baculoviruses AcNPV-proMch4 or AcNPV-CPP32. Apoptosis was measured microscopically by counting cells with the appropriate morphology (blebbing, nuclear condensation). Alternatively, internucleosomal DNA cleavage is assessed as a characteristic marker. […] The DNA samples were analyzed by electrophoresis in a 1.8% agarose gel containing ethidium bromide.
molecule,measurement,setting,value
CC(=O)N[C@@H](CC(=O)O)C(=O)N[C@@H](CCC(=O)O)C(=O)N[C@H](C(=O)N[C@H](C=O)CC(=O)O)C(C)C [DEVD-CHO],Ki,[1],14 nM
DEVD-AMC: fluorescent tetrapeptide substrate representing the PARP cleavage site,specificity of CPP32 for the substrate compared to Mch4 (ratio of Vmax/Km),[2],> 500 fold
same,Km,[1],130 µM
"Mch5B: FADD-like domain B of proMch5 (amino acid 128-205), expressed from pcDNA3 vector in MCF7 cells",percentage of transfected cells that were apoptotic,[3],about 80%
YVAD-AMC: tetrapeptide substrate representing the IL-1β cleavage site,KM for YVAD-AMC relative to KM for DEVD-AMC,[4],> 35 fold
same,Km,[1],150 µM
B1,"induction of apoptosis (morphology, internucleosomal DNA cleavage)",[5],caused a significant percentage of the cells to undergo apoptosis
